# Data: patent publication US10550151B2, “Cell-penetrating compositions and methods using same” (Yale University, priority 2013, dated 2020)
# Where no end group is shown, it is not given here.
# Legend:
# [1] = molecular target: T1, eNOS (Bos taurus, UniProt P29473); test: VEGF-induced NO release by cultured BAEC (NO chemiluminescence); format: cell-based, bovine; details: for inhibition of VEGF-induced NO release: 6 h pretreatment; for effect on basal (unstimulated) NO release: six-hour pretreatment, no VEGF
# T1 construct: effect of Endo5 fused to Cav (endo5-Cav) on NO release by cultured BAEC; endogenous in cells; host or cells: BAEC (cultured endothelial cells)
# T1 sequence (P29473 2-1205 limits assumed): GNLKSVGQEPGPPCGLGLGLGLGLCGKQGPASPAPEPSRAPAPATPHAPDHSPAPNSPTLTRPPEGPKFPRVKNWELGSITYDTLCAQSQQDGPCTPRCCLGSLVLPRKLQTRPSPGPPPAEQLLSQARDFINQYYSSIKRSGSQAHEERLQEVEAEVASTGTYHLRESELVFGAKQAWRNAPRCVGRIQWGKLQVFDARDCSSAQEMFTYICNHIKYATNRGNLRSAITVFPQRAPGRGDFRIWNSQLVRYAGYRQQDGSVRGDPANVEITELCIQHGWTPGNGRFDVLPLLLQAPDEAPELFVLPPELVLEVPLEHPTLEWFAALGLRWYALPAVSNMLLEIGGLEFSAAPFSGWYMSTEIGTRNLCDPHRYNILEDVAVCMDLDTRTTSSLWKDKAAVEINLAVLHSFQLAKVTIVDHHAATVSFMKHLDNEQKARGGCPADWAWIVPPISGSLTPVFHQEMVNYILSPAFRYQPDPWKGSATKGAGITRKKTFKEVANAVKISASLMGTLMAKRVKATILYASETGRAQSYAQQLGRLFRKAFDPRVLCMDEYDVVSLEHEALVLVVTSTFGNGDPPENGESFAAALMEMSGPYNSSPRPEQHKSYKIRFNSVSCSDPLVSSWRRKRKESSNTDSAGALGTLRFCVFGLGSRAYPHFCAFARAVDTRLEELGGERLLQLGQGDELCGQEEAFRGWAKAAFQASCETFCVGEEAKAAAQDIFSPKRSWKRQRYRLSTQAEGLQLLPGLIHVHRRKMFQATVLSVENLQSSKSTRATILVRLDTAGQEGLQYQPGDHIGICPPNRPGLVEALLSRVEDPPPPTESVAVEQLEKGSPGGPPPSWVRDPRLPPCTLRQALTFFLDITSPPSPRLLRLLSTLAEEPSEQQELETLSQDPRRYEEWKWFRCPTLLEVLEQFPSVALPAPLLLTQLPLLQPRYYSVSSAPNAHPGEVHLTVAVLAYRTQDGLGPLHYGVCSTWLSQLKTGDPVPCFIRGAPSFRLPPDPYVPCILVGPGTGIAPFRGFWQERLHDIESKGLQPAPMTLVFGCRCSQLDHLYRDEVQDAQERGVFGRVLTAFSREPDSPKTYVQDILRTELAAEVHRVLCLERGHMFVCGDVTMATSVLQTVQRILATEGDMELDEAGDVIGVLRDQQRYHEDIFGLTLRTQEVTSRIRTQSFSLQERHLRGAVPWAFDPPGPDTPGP
# Description: Briefly, confluent BAEC were incubated in serum-free DMEM for 6 hours with peptides. Media was removed and fresh serum-free DMEM was added, with or without VEGF (10^−9 M) for 30 min. Media was collected, cells were trypsinized and counted, and nitrites levels in the supernatant were determined by using a Sievers NO chemiluminescence analyzer.
# AP-Cav blocks agonist-induced eNOS activity in cultured endothelial cells (Bucci et al., 2000, Nat. Med. 6:1362-7), and this biological activity is dependent on AP-Cav's internalization, dosage and pretreatment time. In the present study, the uptake potential of Endo5 was compared with that of AP by testing the effect of Endo5 fused to Cav (endo5-Cav) on NO release by cultured BAEC.
# [2] = system: HUVEC; test: CPP imaging in live HUVEC (epifluorescence, pulse/chase); format: cell-based, human; details: for staining pattern after 1 h pulse: 37° C.; for staining pattern after two-hour chase: 2 h chase in absence of CPP
# Description: Freshly isolated HUVEC were grown in M199 media supplemented with glutamine, 10% FBS and endothelial cell growth supplement on Petri dishes with glass bottom. Since CPPs bind non-specifically to glass, the background fluorescence was reduced by pretreating glass-bottom Petri dishes with a blocking solution containing unlabelled AP and Endo5 for 30 min (5×10^−5 M) in colorless M199 media with 1% FBS. After cell seeding, media was removed and carboxyfluorescin-labeled Endo5 and Rhodamine-labeled AP were added to cells (10^−5 M) and cells were incubated at 37° C. and 5% CO2 for 1 hour (pulse). Media was removed, cells were rinsed once with warm culture media and peptide uptake was rapidly visualized on a Zess Axiovert inverted fluorescence microscope by performing a Z-stack of captured images followed by volume deconvolution (Openlab software). The new media was left on cells for an additional 2 hours (total 3 hours) to chase CPP localization, and cells were visualized again (chase).
# In the present study, epifluorescence microscopy experiments were performed in live HUVEC to compare the uptake mechanism of Endo5 to AP. After blocking glass bottom Petri dishes with unlabelled AP and Endo5 to minimize non-specific binding of labeled peptides, freshly isolated HUVEC were grown to 50% confluent and labeled with a “pulse” of carboxyfluorescein-Endo5 and rhodamine-AP (10^−6M) for 1 h, rinsed, followed by a two-hour “chase” for a total of 3 hours. Deconvoluted images were captured after the “pulse” and “chase” periods. […] (FIG. 5A). Nuclear staining was nearly completely absent (dark central area).
# [3] = Peptide solubility in NO release dose-response experiment; format: physicochemical; details: above 2.5×10^-5 M
# [4] = peptide 10^-5 M, VEGF 10^-9 M 30 min
substance,measurement,setting,value
"Endo5-CavAB: Endo5 fused to the Cav AB domain (caveolin-1 amino acids 82-95, SEQ ID NO: 6); a 19-mer peptide (RRPPRDGIWKASFTTFTVT)",inhibition of VEGF-induced NO release,[1]; peptide 2×10^-6 M,49%
same,inhibition of VEGF-induced NO release,[1]; [4],completely blocked
"RQIKIWFQNRRMKWKK [AP, reference compound]",inhibition of VEGF-induced NO release,[1]; [4],no significant effect
same,effect on basal (unstimulated) NO release,[1]; peptide 10^-5 M,no significant effect
same,staining pattern after 1 h pulse,[2],diffuse punctate cytoplasmic staining
same,staining pattern after two-hour chase,[2],more concentrated rather than diffuse pattern
RQIKIWFQNRRMKWKKDGIWKASFTTFTVTKYWFYR [AP-Cav],solubility limit,[3],peptide insolubility at greater dose
"RRPPR [Endo5, short five-amino acid cell-permeable peptide]",inhibition of VEGF-induced NO release,[1]; [4],no significant effect
same,effect on basal (unstimulated) NO release,[1]; peptide 10^-5 M,no significant effect
same,staining pattern after 1 h pulse,[2],diffuse punctate cytoplasmic staining
same,staining pattern after two-hour chase,[2],more concentrated rather than diffuse pattern
